First the molecules themselves.
B1: mouse lipoprotein lipase (LPL), recombinant, purified (enzyme)
chain: ADAGRDFSDIESKFALRTPEDTAEDTCHLIPGLADSVSNCHFNHSSKTFVVIHGWTVTGMYESWVPKLVAALYKREPDSNVIVVDWLYRAQQHYPVSAGYTKLVGNDVARFINWMEEEFNYPLDNVHLLGYSLGAHAAGVAGSLTNKKVNRITGLDPAGPNFEYAEAPSRLSPDDADFVDVLHTFTRGSPGRSIGIQKPVGHVDIYPNGGTFQPGCNIGEAIRVIAERGLGDVDQLVKCSHERSIHLFIDSLLNEENPSKAYRCNSKEAFEKGLCLSCRKNRCNNLGYEINKVRAKRSSKMYLKTRSQMPYKVFHYQVKIHFSGTEDGKQHNQAFEISLYGTVAESENIPFTLPEVSTNKTYSFLIYTEVDIGELLMMKLKWISDSYFSWPDWWSSPSFVIERIRVKAGETQKKVIFCAREKVSHLQKGKDSAVFVKCHDKSLKKSG

Assay [1] has as its target T1, soluble mouse S-GPIHBP1 (acidic stretch and adjacent tyrosines replaced with an S-protein tag) (mouse, UniProt Q9D1N2 23-198, residues 32 to 48 replaced with the S-protein tag (KETAAAKFERQHMDS)).
T1 sequence: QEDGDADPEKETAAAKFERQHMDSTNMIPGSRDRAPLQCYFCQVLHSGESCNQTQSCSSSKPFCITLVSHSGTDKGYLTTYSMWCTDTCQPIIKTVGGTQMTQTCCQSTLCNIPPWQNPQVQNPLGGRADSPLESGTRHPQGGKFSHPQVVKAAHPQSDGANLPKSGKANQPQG
As to the kind of experiment: SPR; 150 mM NaCl. On the technique in general: SPR reads the build-up and loss of mass on a sensor chip optically.

The target in assay [2] is T1, soluble mouse S-GPIHBP1 (acidic stretch …). As to the kind of experiment: SPR; LPL bound to heparin DP4, 150 mM NaCl.
Assay [3] has the same target. As to the kind of experiment: SPR; 750 mM NaCl.
The target is the same in assay [4]. As to the kind of experiment: SPR; 750 mM NaCl. The source holds these as a separate data set.
For assay [5] the target is unchanged. As to the kind of experiment: SPR; 150 mM NaCl. This is another data set of the same source.
Assay [6] shares this target. As to the kind of experiment: SPR; LPL bound to heparin DP4, 150 mM NaCl. The source holds these as a separate data set.
In assay [7] the target is B1. As to the kind of experiment: SPR; 150 mM NaCl.
The target in assay [8] is B1. As to the kind of experiment: SPR; 750 mM NaCl.
For assay [9], the target named is B1. As to the kind of experiment: SPR; 750 mM NaCl.
Assay [10] concerns the target B1. As to the kind of experiment: SPR; 150 mM NaCl.
For assay [11], the target named is T2, mouse lipoprotein lipase (LPL), recombinant, purified (mouse, UniProt P11152 28-474).
T2 construct: lipoprotein lipase, mouse; expressed in Drosophila S2 cells; also called mouse LPL; purified mouse LPL; source: Drosophila S2 cells, purified to homogeneity by heparin-Sepharose chromatography
T2 sequence (looked up): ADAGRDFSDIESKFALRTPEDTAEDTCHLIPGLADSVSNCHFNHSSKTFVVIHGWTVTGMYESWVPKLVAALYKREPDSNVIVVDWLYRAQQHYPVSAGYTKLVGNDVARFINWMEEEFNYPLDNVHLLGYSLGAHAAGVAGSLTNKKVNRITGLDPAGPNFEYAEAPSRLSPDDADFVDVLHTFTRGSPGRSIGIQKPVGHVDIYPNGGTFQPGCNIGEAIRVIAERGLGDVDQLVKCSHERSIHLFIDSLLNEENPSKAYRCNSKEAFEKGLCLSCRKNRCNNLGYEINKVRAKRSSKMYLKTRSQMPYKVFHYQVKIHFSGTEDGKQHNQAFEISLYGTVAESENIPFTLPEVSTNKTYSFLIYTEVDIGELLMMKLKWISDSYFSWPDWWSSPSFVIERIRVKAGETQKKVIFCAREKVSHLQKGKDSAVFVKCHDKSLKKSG
As to the kind of experiment: SPR; Biacore T200; mouse LPL captured on the chip with immobilised antibody 27A; WT-GPIHBP1 (0.25-4 nM) or S-GPIHBP1 (2-32 nM) injected, single-cycle kinetics, 50 μL/min, 20°C; 10 mM HEPES pH 7.4, 150 mM NaCl, 4 mM CaCl2, 0.05% P20, 0.2 mg/mL BSA. The conditions noted are these: both partners purified.

The text below walks through data of publication PMC8884915, “Electrostatic sheathing of lipoprotein lipase is essential for its movement across capillary endothelial cells” (The Journal of Clinical Investigation, 2022).

The term Kd denotes the free concentration of one partner at which half of the binding sites on the other are occupied at equilibrium, for simple one-to-one binding. As a reminder, the koff is the first-order rate constant of dissociation.

Regarding B1, the figures for the Kd in [1], in assay [4] and in assay [6] were 107 nM, 183 nM and 290 nM, respectively. Moreover, the koff in assay [2] worked out at 0.0211 s⁻¹; in assay [3], 0.0495 s⁻¹; in [5], 0.0167 s⁻¹.

B2: soluble WT mouse GPIHBP1 (residues 23-198) (domain or fragment, UniProt Q9D1N2 23-198, looked up)
chain: QEDGDADPEPENYNYDDDDDEEEEEETNMIPGSRDRAPLQCYFCQVLHSGESCNQTQSCSSSKPFCITLVSHSGTDKGYLTTYSMWCTDTCQPIIKTVGGTQMTQTCCQSTLCNIPPWQNPQVQNPLGGRADSPLESGTRHPQGGKFSHPQVVKAAHPQSDGANLPKSGKANQPQG
modifications: sulfated tyrosines in the acidic domain (Tyr35, Tyr37): one half of the molecules contained 2 sulfated tyrosines, the other half only 1
notes: lacks the carboxyl-terminal signal peptide that triggers the addition of a GPI anchor; Homogeneous and monodisperse preparation after removal of low levels of oligomers by SEC; also called WT-GPIHBP1; purified WT-GPIHBP1
With B2, the Kd in [7] was 0.93 nM; in assay [9], 20 nM. In addition, the koff was 0.0143 s⁻¹ in assay [8] and 0.0125 s⁻¹ in assay [10]. Moreover, the binding result in assay [11] is on record as “binds”.
